Sequences and labels used below:
T1: TNFR1 (Homo sapiens, UniProt P19438)
T1 chain: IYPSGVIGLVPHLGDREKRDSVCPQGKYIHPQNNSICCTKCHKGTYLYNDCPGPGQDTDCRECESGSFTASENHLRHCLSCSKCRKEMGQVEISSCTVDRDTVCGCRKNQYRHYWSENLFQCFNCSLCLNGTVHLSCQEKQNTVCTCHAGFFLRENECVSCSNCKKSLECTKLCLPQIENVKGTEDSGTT

B1: D65H (designed binder)
chain: MTLQELLREEALRRAEAEAFRYALELLAEKFPEQKEYLLDLAEEIESQIRSLSGVDVEDVRKFLHKEWAWVKELLAEHPAELAEVEAARAARLAELRAEVEAKVAA
B2: R13F (designed binder)
chain: B1 chain with R13F, H65D
B3: E84I (designed binder)
chain: B1 chain with H65D, E84I
B4: F63L (designed binder)
chain: B1 chain with F63L, H65D
B5: E83N (designed binder)
chain: SMEEEVEKAAKEYEKKKKEAIEKHLEKLKAKDKEAAERFLKELEEAAKEYAKDEAKTMSEEEAKRRAKKYKEKVLLSELSEENQKEIKEAEEKLVRTILKYVEEAAK
B6: E82P (designed binder)
chain: B5 chain with E82P, N83E
B7: T97S (designed binder)
chain: B5 chain with N83E, T97S
B8: A51E (designed binder)
chain: B5 chain with A51E, N83E
B9: K16V (designed binder)
chain: B5 chain with K16V, N83E
B10: K56Y (designed binder)
chain: B5 chain with K56Y, N83E
B11: E45R (designed binder)
chain: B5 chain with E45R, N83E
B12: R38M (designed binder)
chain: B5 chain with R38M, N83E
B13: I98C (designed binder)
chain: B5 chain with N83E, I98C
B14: E19T (designed binder)
chain: B5 chain with E19T, N83E
B15: V102E (designed binder)
chain: B5 chain with N83E, V102E
B16: Y13H (designed binder)
chain: B5 chain with Y13H, N83E
B17: L40R (designed binder)
chain: B5 chain with L40R, N83E
B18: A10Y (designed binder)
chain: B5 chain with A10Y, N83E
B19: Y50F (designed binder)
chain: B5 chain with Y50F, N83E
B20: A51R (designed binder)
chain: B5 chain with A51R, N83E
B21: S77Q (designed binder)
chain: B5 chain with S77Q, N83E
B22: Q84P (designed binder)
chain: B5 chain with N83E, Q84P
B23: K15T (designed binder)
chain: B5 chain with K15T, N83E
B24: A63E (designed binder)
chain: B5 chain with A63E, N83E
B25: Y101N (designed binder)
chain: B5 chain with N83E, Y101N
B26: E45C (designed binder)
chain: B5 chain with E45C, N83E
B27: E104S (designed binder)
chain: B5 chain with N83E, E104S
B28: L43V (designed binder)
chain: B5 chain with L43V, N83E
B29: E82R (designed binder)
chain: B5 chain with E82R, N83E
B30: F39H (designed binder)
chain: B5 chain with F39H, N83E
B31: Y13D (designed binder)
chain: B5 chain with Y13D, N83E
B32: A90Y (designed binder)
chain: B5 chain with N83E, A90Y
B33: E103K (designed binder)
chain: B5 chain with N83E, E103K
B34: V6K (designed binder)
chain: B5 chain with V6K, N83E
B35: V6S (designed binder)
chain: B5 chain with V6S, N83E
B36: K31P (designed binder)
chain: B5 chain with K31P, N83E
B37: E7L (designed binder)
chain: B5 chain with E7L, N83E
B38: H24W (designed binder)
chain: B5 chain with H24W, N83E
B39: E60V (designed binder)
chain: B5 chain with E60V, N83E
B40: Y101I (designed binder)
chain: B5 chain with N83E, Y101I
B41: A51C (designed binder)
chain: B5 chain with A51C, N83E
B42: R96D (designed binder)
chain: B5 chain with N83E, R96D
B43: E91P (designed binder)
chain: B5 chain with N83E, E91P
B44: R96C (designed binder)
chain: B5 chain with N83E, R96C
B45: K8V (designed binder)
chain: B5 chain with K8V, N83E
B46: K15L (designed binder)
chain: B5 chain with K15L, N83E
B47: E22K (designed binder)
chain: B5 chain with E22K, N83E
B48: A30F (designed binder)
chain: B5 chain with A30F, N83E
B49: K93R (designed binder)
chain: B5 chain with N83E, K93R
B50: E5N (designed binder)
chain: B5 chain with E5N, N83E
B51: E7D (designed binder)
chain: B5 chain with E7D, N83E
B52: H24F (designed binder)
chain: B5 chain with H24F, N83E
B53: V74K (designed binder)
chain: B5 chain with V74K, N83E

Residue numbers refer to the chain shown, from its start. Names and notes keep the numbering of the source.

One test concerns the target T1, TNFR1. In words: yeast display SC50.
Take B1: the “apparent Kd (screen)” value was 0.718 nM.

On to B2, for which the “apparent Kd (screen)” value was 0.277 nM.

As for B3, the “apparent Kd (screen)” value amounted to 0.869 nM.

Consider B4, for which the “apparent Kd (screen)” value amounted to 2.48 nM.

A further test has as its target T1, TNFR1. In words: yeast display SC50. This is another data set of the same source.
For the molecule B5, the “apparent Kd (screen)” value amounted to 0.79 nM.

Turning to B6, the “apparent Kd (screen)” value amounted to 1.16 nM.

Consider B7, for which the “apparent Kd (screen)” value came out at 2.25 nM.

Regarding B8, the “apparent Kd (screen)” value came out at 0.49 nM.

On to B9, for which the “apparent Kd (screen)” value came to 1.05 nM.

For B10, the “apparent Kd (screen)” value came out at 3.99 nM.

As to B11, the “apparent Kd (screen)” value was 6.43 nM.

On to B12, for which the “apparent Kd (screen)” value amounted to 0.869 nM.

On to B13, for which the “apparent Kd (screen)” value was found to be 6.43 nM.

Turning to B14, the “apparent Kd (screen)” value stood at 0.49 nM.

Turning to B15, the “apparent Kd (screen)” value stood at 1.4 nM.

B16: the “apparent Kd (screen)” value turned out to be 0.446 nM.

In the case of B17, the “apparent Kd (screen)” value amounted to 0.49 nM.

Take B18: the “apparent Kd (screen)” value turned out to be 13.8 nM.

For B19, the “apparent Kd (screen)” value stood at 13.8 nM.

B20: the “apparent Kd (screen)” value stood at 0.49 nM.

Take B21: the “apparent Kd (screen)” value is 1.27 nM.

As for B22, the “apparent Kd (screen)” value was determined as 22.2 nM.

Take B23: the “apparent Kd (screen)” value turned out to be 0.653 nM.

As for B24, the “apparent Kd (screen)” value stood at 7.07 nM.

Regarding B25, the “apparent Kd (screen)” value is 0.446 nM.

On to B26, for which the “apparent Kd (screen)” value was 1.27 nM.

With B27, the “apparent Kd (screen)” value came to 0.718 nM.

Turning to B28, the “apparent Kd (screen)” value was 0.869 nM.

For the molecule B29, the “apparent Kd (screen)” value was 0.405 nM.

Consider B30, for which the “apparent Kd (screen)” value is 4.39 nM.

As to B31, the “apparent Kd (screen)” value turned out to be 12.5 nM.

Take B32: the “apparent Kd (screen)” value was found to be 0.49 nM.

In the case of B33, the “apparent Kd (screen)” value was determined as 0.446 nM.

On to B34, for which the “apparent Kd (screen)” value turned out to be 1.54 nM.

On to B35, for which the “apparent Kd (screen)” value was found to be 1.4 nM.

For the molecule B36, the “apparent Kd (screen)” value worked out at 3 nM.

In the case of B37, the “apparent Kd (screen)” value worked out at 11.4 nM.

Regarding B38, the “apparent Kd (screen)” value stood at 0.869 nM.

On to B39, for which the “apparent Kd (screen)” value was determined as 0.446 nM.

Take B40: the “apparent Kd (screen)” value is 0.869 nM.

Consider B41, for which the “apparent Kd (screen)” value was 0.446 nM.

B42: the “apparent Kd (screen)” value stood at 10.4 nM.

For B43, the “apparent Kd (screen)” value turned out to be 1.54 nM.

For the molecule B44, the “apparent Kd (screen)” value amounted to 2.48 nM.

Turning to B45, the “apparent Kd (screen)” value is 1.16 nM.

As for B46, the “apparent Kd (screen)” value worked out at 0.49 nM.

Turning to B47, the “apparent Kd (screen)” value is 1.05 nM.

Regarding B48, the “apparent Kd (screen)” value was 0.869 nM.

Take B49: the “apparent Kd (screen)” value was found to be 0.593 nM.

On to B50, for which the “apparent Kd (screen)” value stood at 0.539 nM.

Take B51: the “apparent Kd (screen)” value came out at 0.956 nM.

Regarding B52, the “apparent Kd (screen)” value was 0.956 nM.

For the molecule B53, the “apparent Kd (screen)” value is 6.43 nM.

These data come from article PMC12416549 (2024).
